Earlier results in publication PMC6425487.

Target: Cterm (position 6, KEKGLF-----)
Experiment: NMR
Settings: 150 mM; free peptide in solution

Q: For KEKGLF, which pKa is on record?
A: 3.2
